For 12 sequences, protein production results are on record in a protein production outcome set (Wang et al. 2014).

A short description of the data set: label from the status in PepcDB records.
For “MSGRLRNALHKIRDRGLTPRDLFSYGCIAGHRLLSGAWGTLMLRAKAGCLGITVGKGCECFGTVILSRWPGSRIELGDGVSIISSSRRCTSATIHAPTRLRTFAPTARIILEDGVSLNGTAITARSRTIRIGKGTMVAPNCVITDSDFHAMWPPETRLDTPAFERDADVTIGQHVWLGMRCIVLKGVTIGDGAIVAAGSVVTRDVPPATLVAGVPARVVRHLP”, the protein production result is on record as “failed”.
Then “MSPIVSVPDITAPVENVPAILPKVVPGELIVNKPTGGDSDELFQYLVDILASPVYDVAIESPLELAEKLSDRLGVNFYIKREDKQRVFSFKLRGAYNMMSNLSREELDKGVITASAGNHAQGVALAGQRLNCVAKIVMPTTTPQIKIDAVRALGGDVVLYGKTFDEAQTHALELSEKDGLKYIPPFDDPGVIKGQGTIGTEINRQLKDIHAVFIPVGGGGLIAGVATFFKQIAPNTKIIGVEPYGAASMTLSLHEGHRVKLSNVDTFADGVAVALVGEYTFAKCQELIDGMVLVANDGISAAIKDVYDEGRNILETSGAVAIAGAAAYCEFYKIKNENIVAIASGANMDFSKLHKVTELAGLGSGK”, with “not failed”; and “SVDVEFQKAVEDILRKNIKQGKQYAGSDLFDRAFVVAMDPYSGEVLALAGQKLNDKGEFDDYSLGTFTTAYAMGSAVKGSTILGGIMDGAISNKTVFTDQPIALKGTKPKSSWFNRTGAGNRPLDPVGALEISSNSYMYQVAMKMGGAKYVPNGPLRAPLSTFDDMRYYYNQFGLGVKTGIDLPGEQVGYKGDDQTIGKILDFAIGQYDSYTPLQMAQYVSTIANGGSRIAPSMVKEIRNPSTNGDSVGTLATANEPKVLNKIGVSDNDIKTVQKGFYEVTHGSTGTARTVFTSSDYDVAGKTGTADAFYDGPKEGNKMASVWNTTFVGYAPVKKPEIAISVVVPWIYRPYGTDQKTNMKISKEVFDKYFELKKERAESNKDASKVEQPINNKEAAAKAQSEQTEN”, with “failed”; and “MYHGMNPSNGDGFLEQQQQQQQPQSPQRLLAVILWFQLALCFGPAQLTGGFDDLQVCADPGIPENGFRTPSGGVFFEGSVARFHCQDGFKLKGATKRLCLKHFNGTLGWIPSDNSICVQEDCRIPQIEDAEIHNKTYRHGEKLIITCHEGFKIRYPDLHNMVSLCRDDGTWNNLPICQGCLRPLASSNGYVNISELQTSFPVGTVISYRCFPGFKLDGSAYLECLQNLIWSSSPPRCLALEAQVCPLPPMVSHGDFVCHPRPCERYNHGTVVEFYCDPGYSLTSDYKYITCQYGEWFPSYQVYCIKSEQTWPSTHETLLTTWKIVAFTATSVLLVLLLVILARMFQTKFKAHFPPRGPPRSSSSDPDFVVVDGVPVMLPSYDEAVSGGLSALGPGYMASVGQGCPLPVDDQSPPAYPGSGDTDTGPGESETCDSVSGSSELLQSLYSPPRCQESTHPASDNPDIIASTAEEVASTSPGIDIADEIPLMEEDP”, with “failed”.
Then “MAVLLSSFSPLGINIDMNKNLGVSYSSFPQIHLFKGSTPLRVRTFVVSSRKNSGTGLASEDKKLLLERYGYDANDDFGSQSKKARRKEEKMSGRNSQQVEEVVVVQPRTTHRLLQVLAGTAKRKKLLSLKGMDVRPMMEVVKGAAFGILQAAGGCPTSLRPGRWLDLYSGTGSVGIEAISRGCSEAHFVEMDPWVVSNVLQPNLEHTGFVDASVIHTARVENFLERADKLVGKDGVFDYISVTPPYMEVDYEVLMDQIAKSPAIGENTFILVEYPSRTTMLDSCGCLEKMTDRRFGRTHLAIYGPKWAQKPRKS”, with “failed”; and “MKIGIIGATGRAGSRILEEAKNRGHEVTAIVRNAGKITQTHKDINILQKDIFDLTLSDLSDQNVVVDAYGVSPDEAEKHVTSLDHLISVLNGTVSPRLLVVGGAASLQIDEDGNTLLESKGLREAPYYPTARAQAKQLEHLRSHQAEFSWTYISPSAMFEPGERTGDYQIGKDHLLFGSDGNSFISMEDYAIAVLDEIERPNHLNERFTVAGK”, with “failed”.
Then “MKNLFLTSSFKDVVPLFTEFESNLQGKTVTFIPTASTVEEVTFYVEAGKKALESLGLLVEELDIATESLGEITTKLRKNDFIYVTGGNTFFLLQELKRTGADKLILEEIAAGKLYIGESAGAVITSPNIAYIQTMDSTKKAVNLTNYDALNLVDFSTLPHYNNTPFKEITQKIVTEYAGKSQIYPISNHEAIFIRGKEVITKRLS”, with “failed”; and “MKATLAAPSSLTSLPYRTNSSFGSKSSLLFRSPSSSSSVSMTTTRGNVAVAAAATSTEALRKGIAEFYNETSGLWEEIWGDHMHHGFYDPDSSVQLSDSGHKEAQIRMIEESLRFAGVTDEEEEKKIKKVVDVGCGIGGSSRYLASKFGAECIGITLSPVQAKRANDLAAAQSLAHKASFQVADALDQPFEDGKFDLVWSMESGEHMPDKAKFVKELVRVAAPGGRIIIVTWCHRNLSAGEEALQPWEQNILDKICKTFYLPAWCSTDDYVNLLQSHSLQDIKCADWSENVAPFWPAVIRTALTWKGLVSLLRSGMKSIKGALTMPLMIEGYKKGVIKFGIITCQKPL”, with “failed”; and “MKHIQINPSILSADLARLGDDVKAVLAAGADNIHFDVMDNHYVPNLTFGPMVLKALRDYGITAGMDVHLMVKPVDALIESFAKAGATSIVFHPEASEHIDRSLQLIKSFGIQAGLALNPATGIDCLKYVESNIDRVLIMSVNPGFGGQKFIPAMLDKAKEISKWISSTDRDILLEIDGGVNPYNIAEIAVCGVNAFVAGSAIFNSDSYKQTIDKMRDELNKV”, with “not failed”.
“MWGRLLLWPLVLGFSLSGGTQTPSVYDESGSTGGGDDSTPSILPAPRGYPGQVCANDSDTLELPDSSRALLLGWVPTRLVPALYGLVLVVGLPANGLALWVLATQAPRLPSTMLLMNLATADLLLALALPPRIAYHLRGQRWPFGEAACRLATAALYGHMYGSVLLLAAVSLDRYLALVHPLRARALRGRRLALGLCMAAWLMAAALALPLTLQRQTFRLARSDRVLCHDALPLDAQASHWQPAFTCLALLGCFLPLLAMLLCYGATLHTLAASGRRYGHALRLTAVVLASAVAFFVPSNLLLLLHYSDPSPSAWGNLYGAYVPSLALSTLNSCVDPFIYYYVSAEFRDKVRAGLFQRSPGDTVASKASAEGGSRGMGTHSSLLQ”: the protein production entry is on record as “failed”.
Then “MQTPKSRPGSLELPQKKSPLPAPKVVRRLKPSGAESDPKTKTISKTQIPKVVADRRSARIPLNEKKRTGRIPELESTISQLQEELKKAKEELNRSEALKREAQEEAEDAKHQLMDINASEDSRIEELRKLSQERDKTWQSELEAMQRQHGMDSTALSSAINEVQKLKSKLFESESELEQSKYEVRSLEKLVRQLEEERVNSRDSSSSMEVEELKEAMNLSRQEITQLKSAVEAAETRYQEEYIQSTLQIRSAYEQTEAVKSRYSQREAELTEELNRTKDEIEGLRKELMEKVKEDESTGDLKKLESDLMEVRGSLMDKEMELQILRSAMEKKVETANTEAMEAELKRVKIQCEQWRKAAETAASILNNDEERTDSIETSKMLKKFGVLLKKNHK”, with “failed”; and “MNSTLKSSVYILLIISVILVLNGYSYADSYVGGKPLDTLQNGTVTGDVNVDSYYGFTDPEGVGNNTGGNANITYTFNYTIPSNAQIKNATLYVLVYSGHMQEARQTYVNVTYNGNSLENQTLYTTYIYPPEGNNNTWLLGEGHDNDPYLMINNHTMRVTSDYLLWYDVTNMTKKDMNNTANVCTIGSYDGRIKLITLIVAYNIPGSTTATRYWINWGHDVSSYNDEDYTGETYFNGAVPNPANASVMIVHAASSDGIYTYNDQNLPNGTYQRRGSYSGYEIWNVTNIYNNGTNKFTYHKSPGTGLGGYYKIILAVQKVTYTPNIDLTLQTVTFNGGAAFVLENNTMRCQIKNNGSGASPATILALYANDELVATSIIPPINPSGTVYVNITDPTIRSATTETLYSNNNQNVTYRFVIDPYNEVPETNEANNEKTRTVPVLYNGYKG”, with “failed”.
